Results from US20130336980A1 (Janssen / Centocor, published 2013).
Substitutions are numbered along the chain they refer to. Where two headings read alike, the source gives them in different places.

Tests used:
18AKF20-->TEG = assay: SPR, ProteOn XPR36, 25 C: mAb captured on anti-Fc surface, ST2L-D1D2 (HH-ST2L) wild type or variant injected, 1:1 model
[1] = target: T1, human ST2L extracellular domain with C-terminal His6 tag (human, UniProt Q01638 19-328); assay: SPR, captured mAb, ST2L-ECD analyte
T1 construct: also called huST2L-ECD; ST2L-ECD
T1 sequence: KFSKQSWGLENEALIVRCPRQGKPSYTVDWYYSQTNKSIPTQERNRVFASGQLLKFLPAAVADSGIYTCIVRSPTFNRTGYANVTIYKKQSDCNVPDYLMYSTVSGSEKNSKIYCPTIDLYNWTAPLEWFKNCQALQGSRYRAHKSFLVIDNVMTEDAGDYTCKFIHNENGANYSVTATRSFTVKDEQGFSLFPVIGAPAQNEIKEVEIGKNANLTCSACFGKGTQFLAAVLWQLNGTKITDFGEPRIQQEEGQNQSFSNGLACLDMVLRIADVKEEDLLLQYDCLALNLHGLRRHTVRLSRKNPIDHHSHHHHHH

[2] = target: T2, cynomolgus ST2L extracellular domain with C-terminal His6 tag (Macaca fascicularis (cyno), UniProt Q01638 19-321 (human entry)); assay: SPR, captured mAb, ST2L-ECD analyte
T2 construct: also called cynoST2L-ECD; cyno ST2L
T2 chain: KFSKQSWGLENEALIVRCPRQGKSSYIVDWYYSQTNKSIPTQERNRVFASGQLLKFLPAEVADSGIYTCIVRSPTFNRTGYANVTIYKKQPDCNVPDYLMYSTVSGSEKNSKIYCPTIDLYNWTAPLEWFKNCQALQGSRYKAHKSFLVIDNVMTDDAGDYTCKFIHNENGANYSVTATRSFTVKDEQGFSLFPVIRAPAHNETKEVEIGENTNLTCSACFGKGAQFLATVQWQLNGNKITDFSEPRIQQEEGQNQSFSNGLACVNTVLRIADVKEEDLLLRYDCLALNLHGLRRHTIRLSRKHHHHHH

human ST2L on cells = target: T3, human ST2L on cells (human, UniProt Q01638 19-556); assay: cell-based or functional assay
T3 sequence: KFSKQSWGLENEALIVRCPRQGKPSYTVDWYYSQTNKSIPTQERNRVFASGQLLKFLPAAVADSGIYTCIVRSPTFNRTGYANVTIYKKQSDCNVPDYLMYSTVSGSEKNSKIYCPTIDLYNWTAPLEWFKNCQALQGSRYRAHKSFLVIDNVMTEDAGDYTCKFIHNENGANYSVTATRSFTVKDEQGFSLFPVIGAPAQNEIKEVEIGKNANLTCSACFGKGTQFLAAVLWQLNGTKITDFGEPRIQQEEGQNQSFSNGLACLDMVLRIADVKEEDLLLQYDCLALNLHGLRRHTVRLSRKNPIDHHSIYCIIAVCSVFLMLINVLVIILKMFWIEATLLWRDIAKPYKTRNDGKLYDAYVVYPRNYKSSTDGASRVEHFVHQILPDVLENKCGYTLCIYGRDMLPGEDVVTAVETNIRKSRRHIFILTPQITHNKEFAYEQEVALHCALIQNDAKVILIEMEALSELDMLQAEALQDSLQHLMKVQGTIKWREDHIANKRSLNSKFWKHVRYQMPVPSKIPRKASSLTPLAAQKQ

[3] = target: T1, human ST2L extracellular domain with …; assay: SPR, captured mAb, ST2L-ECD analyte; remark: listed apart in the source
Description: (§1) The interactions of anti-ST2L antibodies with His₆-tagged human ST2L-ECD and His₆-tagged cyno ST2L-ECD were studied by ProteOn using a ProteOn XPR36 at 25° C. A biosensor surface was prepared by coupling goat anti-human IgG Fcγ fragment specific antibody (Ab) to the surface of a GLC sensor chip using the manufacturer instructions for amine-coupling chemistry. The coupling buffer was 10 mM sodium acetate, pH 4.5. The goat anti-human IgG Fcγ (about 4500 response units) was immobilized in the horizontal orientation. The anti-ST2L antibodies were provided purified, or in crude supernatants. In either case these antibodies were diluted in PRB (PBS pH 7.4, supplemented with, 3 mM EDTA, and 0.005% Tween 20) to a concentration of about 0.5 μg/mL. The antibodies were captured (60-130 RU) in the vertical orientation onto the anti-human Fcγ antibody-modified GLC chip. Capture of anti-ST2L mAbs was followed by injection of huST2L ECD in solution (0.024 to 15 nM in 5-fold dilutions) or cynoST2L ECD in solution (0.020-5 nM in 4-fold dilutions) in the horizontal orientation. The association was monitored for 4 minutes in all experiments (200 μL injected at 50 μL/min). The dissociation was monitored for 30 minutes. Regeneration of the sensor surface was obtained with three 15 sec pulses of 10 mM glycine pH 1.5. The data were fit using the ProteOn software and using a 1:1 binding model with mass transfer.

[4] = target: T2, cynomolgus ST2L extracellular domain …; assay: SPR, captured mAb, ST2L-ECD analyte
Description: as §1

[5] = target: T1, human ST2L extracellular domain with …; assay: RLB ELISA, inhibition of biotin-IL-33 binding to coated huST2L-ECD
[6] = target: T1, human ST2L extracellular domain with …; assay: MSD electrochemiluminescence competition assay on plate-coated ST2L-ECD; unlabeled antibody titrated against 30 nM sulfo-tag labeled C2244 Fab
Description: Competition binding assays were performed to evaluate different binding epitope groups for anti-ST2L mAbs. 5 μl (10 μg/ml) of ST2L-ECD protein was coated on MSD HighBind plate (Meso Scale Discovery, Gaithersburg, Md.) per well for 2 hr at room temperature. One-hundred and fifty microliters of 5% MSD Blocker A buffer (Meso Scale Discovery, Gaithersburg, Md.) was added to each well and incubated for 2 hr at room temperature. Plates were washed three times with 0.1 M HEPES buffer, pH 7.4, followed by the addition of the mixture of the MSD fluorescence dye (sulfo tag, NHS ester) labeled individual anti-ST2L antibody with different competitors. Labeled antibody, 10 or 30 nM, was incubated with increasing concentrations of competitor antibodies, from 1 nM to 2 or 5 μM, and then added to the designated wells in a volume of 25 μL mixture. After 2-hour incubation with gentle shaking at room temperature, plates were washed 3 times with 0.1M HEPES buffer (pH 7.4). MSD Read Buffer T was diluted with distilled water (4-fold) and dispensed at a volume of 150 μL/well and analyzed with a SECTOR Imager 6000.

B1: STLM208 (antibody, V domains shown)
VH: EVQLLESGGGLVQPGGSLRLSCAASGFTFSIYDMIWVRQAPGKGLEWVSSIRGEGGGTYYADSVKGRFTISRDNSKNTLYLQMNSLRAEDTAVYYCARDPWSTEGSFFVLDYWGQGTLVTVSS
VL: EIVLTQSPATLSLSPGERATLSCRASQSVDDDLAWYQQKPGQAPRLLIYDASNRATGIPARFSGSGSGTDFTLTISSLEPEDFAVYYCQQYITAPLTFGQGTKVEIK
Kd (18AKF20-->TEG): 0.0193 nM | koff (18AKF20-->TEG): 0.000229 s⁻¹ | kon (18AKF20-->TEG): 1.3e+07 M⁻¹ s⁻¹

B2: ST2M50 (antibody, V domains shown)
VH: EVQLVQSGAEVKKPGESLKISCKGSGYSFTSYWIGWVRQMPGKGLEWMGIIYPGDSYTRYSPSFQGQVTISADKSISTAYLQWSSLKASDTAMYYCARLSGRFDYWGQGTLVTVSS
VL: B1 VL with D30S, D31N, D32A, D50F, Y91F, I92F, T93N, A94W, L96I
Kd [1]: 0.045 nM | koff [1]: 5.1e-05 s⁻¹ | kon [1]: 1.15e+06 M⁻¹ s⁻¹ | Kd [2]: 0.124 nM | koff [2]: 0.00249 s⁻¹ | kon [2]: 2.01e+07 M⁻¹ s⁻¹

B3: STLM206 (antibody, V domains shown)
VH: B1 VH with S50T, G57S
VL: B1 VL
notes: IgG; VH3-23 / Vk-L6 frameworks
RGA IC50 (human ST2L on cells): 0.67 µg/mL | Kd [3]: 0.025 nM | koff [3]: 0.00016 s⁻¹ | kon [3]: 6.39e+06 M⁻¹ s⁻¹ | Kd [4]: 0.006 nM | koff [4]: 0.000583 s⁻¹ | kon [4]: 9.4e+07 M⁻¹ s⁻¹ | IC50 [5]: 0.4 µg/mL

B4: STLM15 (antibody, human IgG2, V domains shown)
VH: EVQLQESGPGLVKPSQSLSLTCTVTGFSITSDYAWNWIRQFPGSKLEWMGFISYSGDTSFNPSLKSRISVTRDTSKNQFFLQLNSVTTEDTATYYCASYDGYSFDYWGQGTTLTVSS
VL: DIVLTQSPASLAISLGQRATISCRASKSVSTSGSSYMFWYQQKPGQPPKLLIYLASNLESGVPARFSGSGSGTDFTLNIHPVEEEDAAAYYCQHSREIPYTFGGGTKLEIK
notes: Mouse hybridoma C2244 V regions cloned into human IgG2 background = STLM15; also called C2244; C2244/STLM15
IC50 (read off the curve) [6]: ~100 nM
